This passage reports Kd results from paper PMC10786891, “Massively parallel profiling of RNA-targeting CRISPR-Cas13d”.

T1: EsCas13d, nuclease-dead (Eubacterium siraeum, UniProt B0MS50, R295A;H300A;R849A;H854A)
T1 sequence: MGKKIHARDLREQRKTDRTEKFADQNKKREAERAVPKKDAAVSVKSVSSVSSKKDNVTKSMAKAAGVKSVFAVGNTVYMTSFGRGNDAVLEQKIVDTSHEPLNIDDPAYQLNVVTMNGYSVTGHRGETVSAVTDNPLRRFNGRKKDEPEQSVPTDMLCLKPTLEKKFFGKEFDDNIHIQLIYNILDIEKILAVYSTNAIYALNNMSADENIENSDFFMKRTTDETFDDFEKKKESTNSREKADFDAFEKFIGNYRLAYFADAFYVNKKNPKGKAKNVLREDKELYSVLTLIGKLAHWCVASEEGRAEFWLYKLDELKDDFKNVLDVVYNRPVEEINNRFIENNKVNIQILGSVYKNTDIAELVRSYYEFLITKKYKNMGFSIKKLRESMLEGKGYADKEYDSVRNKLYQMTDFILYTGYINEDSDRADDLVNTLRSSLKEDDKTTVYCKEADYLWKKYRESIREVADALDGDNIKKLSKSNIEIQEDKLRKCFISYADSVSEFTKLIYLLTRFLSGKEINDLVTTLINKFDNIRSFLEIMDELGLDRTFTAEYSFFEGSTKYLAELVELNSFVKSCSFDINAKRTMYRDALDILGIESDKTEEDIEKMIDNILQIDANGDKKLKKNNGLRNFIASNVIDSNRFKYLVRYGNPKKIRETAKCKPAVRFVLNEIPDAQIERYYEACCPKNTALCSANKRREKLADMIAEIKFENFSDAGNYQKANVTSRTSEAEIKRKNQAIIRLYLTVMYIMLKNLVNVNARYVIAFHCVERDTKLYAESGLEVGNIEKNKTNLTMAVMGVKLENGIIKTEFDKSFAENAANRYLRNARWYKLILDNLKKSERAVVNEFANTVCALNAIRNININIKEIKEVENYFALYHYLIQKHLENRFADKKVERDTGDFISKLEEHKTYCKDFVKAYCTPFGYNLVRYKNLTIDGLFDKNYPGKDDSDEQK

B1: target 1 insC 3' of 19,insU 3' of 15 (mixed)
RNA 1: CACCCGUGCAAAAAUGCAGGGGUCUAAAACUGAGCGGAUAACCUCUCUAUGG
RNA 2: GGGAAUGGAUCCACAUCUACGAAUUCGUACCAUCAGAGUAGGUUAUCCGCUCACCGAGAUCGGAAGAGCACACGU
B2: target 1 U8G,U10G (mixed)
RNA 1: CACCCGUGCAAAAAUGCAGGGGUCUAAAACUGAGCGGAUAACCUCUCUAUGG
RNA 2: GGGAAUGGAUCCACAUCUACGAAUUCGUACCAUAGAGAGGUGAGCCGCUCACCGAGAUCGGAAGAGCACACGU
B3: target 1 del3 (mixed)
RNA 1: CACCCGUGCAAAAAUGCAGGGGUCUAAAACUGAGCGGAUAACCUCUCUAUGG
RNA 2: GGGAAUGGAUCCACAUCUACGAAUUCGUACCAUAGAGAGGUUAUCCGCCACCGAGAUCGGAAGAGCACACGU
B4: target 1 G5C,A14C (mixed)
RNA 1: CACCCGUGCAAAAAUGCAGGGGUCUAAAACUGAGCGGAUAACCUCUCUAUGG
RNA 2: GGGAAUGGAUCCACAUCUACGAAUUCGUACCAUAGAGCGGUUAUCCCCUCACCGAGAUCGGAAGAGCACACGU
B5: target 1 A1C,C4G (mixed)
RNA 1: CACCCGUGCAAAAAUGCAGGGGUCUAAAACUGAGCGGAUAACCUCUCUAUGG
RNA 2: GGGAAUGGAUCCACAUCUACGAAUUCGUACCAUAGAGAGGUUAUCCGGUCCCCGAGAUCGGAAGAGCACACGU
B6: target 1 C6A,A18G (mixed)
RNA 1: CACCCGUGCAAAAAUGCAGGGGUCUAAAACUGAGCGGAUAACCUCUCUAUGG
RNA 2: GGGAAUGGAUCCACAUCUACGAAUUCGUACCAUGGAGAGGUUAUCAGCUCACCGAGAUCGGAAGAGCACACGU
B7: target 1 A16C,G17C (mixed)
RNA 1: CACCCGUGCAAAAAUGCAGGGGUCUAAAACUGAGCGGAUAACCUCUCUAUGG
RNA 2: GGGAAUGGAUCCACAUCUACGAAUUCGUACCAUACCGAGGUUAUCCGCUCACCGAGAUCGGAAGAGCACACGU
B8: target 1 C2U,U8G (mixed)
RNA 1: CACCCGUGCAAAAAUGCAGGGGUCUAAAACUGAGCGGAUAACCUCUCUAUGG
RNA 2: GGGAAUGGAUCCACAUCUACGAAUUCGUACCAUAGAGAGGUUAGCCGCUUACCGAGAUCGGAAGAGCACACGU
B9: target 1 insU 3' of 21,insA 3' of 8 (mixed)
RNA 1: CACCCGUGCAAAAAUGCAGGGGUCUAAAACUGAGCGGAUAACCUCUCUAUGG
RNA 2: GGGAAUGGAUCCACAUCUACGAAUUCGUACCUAUAGAGAGGUUAUACCGCUCACCGAGAUCGGAAGAGCACACGU
B10: target 1 insU 3' of 13,insC 3' of 11 (mixed)
RNA 1: CACCCGUGCAAAAAUGCAGGGGUCUAAAACUGAGCGGAUAACCUCUCUAUGG
RNA 2: GGGAAUGGAUCCACAUCUACGAAUUCGUACCAUAGAGAGUGUCUAUCCGCUCACCGAGAUCGGAAGAGCACACGU
B11: target 1 A1G,C4G (mixed)
RNA 1: CACCCGUGCAAAAAUGCAGGGGUCUAAAACUGAGCGGAUAACCUCUCUAUGG
RNA 2: GGGAAUGGAUCCACAUCUACGAAUUCGUACCAUAGAGAGGUUAUCCGGUCGCCGAGAUCGGAAGAGCACACGU
B12: target 1 insC 3' of 14,insG 3' of 1 (mixed)
RNA 1: CACCCGUGCAAAAAUGCAGGGGUCUAAAACUGAGCGGAUAACCUCUCUAUGG
RNA 2: GGGAAUGGAUCCACAUCUACGAAUUCGUACCAUAGAGACGGUUAUCCGCUCAGCCGAGAUCGGAAGAGCACACGU
B13: target 1 U11G,C21U (mixed)
RNA 1: CACCCGUGCAAAAAUGCAGGGGUCUAAAACUGAGCGGAUAACCUCUCUAUGG
RNA 2: GGGAAUGGAUCCACAUCUACGAAUUCGUACUAUAGAGAGGGUAUCCGCUCACCGAGAUCGGAAGAGCACACGU
B14: target 1 G17A,U19G (mixed)
RNA 1: CACCCGUGCAAAAAUGCAGGGGUCUAAAACUGAGCGGAUAACCUCUCUAUGG
RNA 2: GGGAAUGGAUCCACAUCUACGAAUUCGUACCAGAAAGAGGUUAUCCGCUCACCGAGAUCGGAAGAGCACACGU
B15: target 1 C2A,U3G (mixed)
RNA 1: CACCCGUGCAAAAAUGCAGGGGUCUAAAACUGAGCGGAUAACCUCUCUAUGG
RNA 2: GGGAAUGGAUCCACAUCUACGAAUUCGUACCAUAGAGAGGUUAUCCGCGAACCGAGAUCGGAAGAGCACACGU
B16: target 1 insC 3' of 17,insG 3' of 1 (mixed)
RNA 1: CACCCGUGCAAAAAUGCAGGGGUCUAAAACUGAGCGGAUAACCUCUCUAUGG
RNA 2: GGGAAUGGAUCCACAUCUACGAAUUCGUACCAUAGCAGAGGUUAUCCGCUCAGCCGAGAUCGGAAGAGCACACGU
B17: target 1 insC 3' of 14,insU 3' of 1 (mixed)
RNA 1: CACCCGUGCAAAAAUGCAGGGGUCUAAAACUGAGCGGAUAACCUCUCUAUGG
RNA 2: GGGAAUGGAUCCACAUCUACGAAUUCGUACCAUAGAGACGGUUAUCCGCUCAUCCGAGAUCGGAAGAGCACACGU
B18: target 1 U3G,G17A (mixed)
RNA 1: CACCCGUGCAAAAAUGCAGGGGUCUAAAACUGAGCGGAUAACCUCUCUAUGG
RNA 2: GGGAAUGGAUCCACAUCUACGAAUUCGUACCAUAAAGAGGUUAUCCGCGCACCGAGAUCGGAAGAGCACACGU
B19: target 1 A1C,C6G (mixed)
RNA 1: CACCCGUGCAAAAAUGCAGGGGUCUAAAACUGAGCGGAUAACCUCUCUAUGG
RNA 2: GGGAAUGGAUCCACAUCUACGAAUUCGUACCAUAGAGAGGUUAUCGGCUCCCCGAGAUCGGAAGAGCACACGU
B20: target 1 del15,del22 (mixed)
RNA 1: CACCCGUGCAAAAAUGCAGGGGUCUAAAACUGAGCGGAUAACCUCUCUAUGG
RNA 2: GGGAAUGGAUCCACAUCUACGAAUUCGUACAUAGAAGGUUAUCCGCUCACCGAGAUCGGAAGAGCACACGU
B21: target 1 insC 3' of 8,insU 3' of 4 (mixed)
RNA 1: CACCCGUGCAAAAAUGCAGGGGUCUAAAACUGAGCGGAUAACCUCUCUAUGG
RNA 2: GGGAAUGGAUCCACAUCUACGAAUUCGUACCAUAGAGAGGUUAUCCCGCUUCACCGAGAUCGGAAGAGCACACGU
B22: target 1 insG 3' of 8,insA 3' of 8 (mixed)
RNA 1: CACCCGUGCAAAAAUGCAGGGGUCUAAAACUGAGCGGAUAACCUCUCUAUGG
RNA 2: GGGAAUGGAUCCACAUCUACGAAUUCGUACCAUAGAGAGGUUAUGACCGCUCACCGAGAUCGGAAGAGCACACGU
B23: target 1 insG 3' of 22,insA 3' of 11 (mixed)
RNA 1: CACCCGUGCAAAAAUGCAGGGGUCUAAAACUGAGCGGAUAACCUCUCUAUGG
RNA 2: GGGAAUGGAUCCACAUCUACGAAUUCGUACGCAUAGAGAGGUAUAUCCGCUCACCGAGAUCGGAAGAGCACACGU
B24: target 1 A9C,U10C (mixed)
RNA 1: CACCCGUGCAAAAAUGCAGGGGUCUAAAACUGAGCGGAUAACCUCUCUAUGG
RNA 2: GGGAAUGGAUCCACAUCUACGAAUUCGUACCAUAGAGAGGUCCUCCGCUCACCGAGAUCGGAAGAGCACACGU
B25: target 1 insC 3' of 14,insC 3' of 1 (mixed)
RNA 1: CACCCGUGCAAAAAUGCAGGGGUCUAAAACUGAGCGGAUAACCUCUCUAUGG
RNA 2: GGGAAUGGAUCCACAUCUACGAAUUCGUACCAUAGAGACGGUUAUCCGCUCACCCGAGAUCGGAAGAGCACACGU
B26: target 1 U8C,U19A (mixed)
RNA 1: CACCCGUGCAAAAAUGCAGGGGUCUAAAACUGAGCGGAUAACCUCUCUAUGG
RNA 2: GGGAAUGGAUCCACAUCUACGAAUUCGUACCAAAGAGAGGUUACCCGCUCACCGAGAUCGGAAGAGCACACGU
B27: target 1 G5U,U11A (mixed)
RNA 1: CACCCGUGCAAAAAUGCAGGGGUCUAAAACUGAGCGGAUAACCUCUCUAUGG
RNA 2: GGGAAUGGAUCCACAUCUACGAAUUCGUACCAUAGAGAGGAUAUCCUCUCACCGAGAUCGGAAGAGCACACGU

The target in this data set is T1, EsCas13d, nuclease-dead. The data set can be described thus: crRNA (strand 1, pre-loaded); Mg2+; 40 mM Tris-HCl pH 7.5, 150 mM NaCl, 6 mM MgCl2, 1 mM DTT, 0.1% Tween-20, 0.2 mg/ml BSA; 25 C; 10 min per concentration, then washed. The settings on record: tags: His6-TwinStrep-SUMO cleaved; N-terminal SNAP kept (SNAP-Surface 488); label: 3' end held by stalled T7 RNA polymerase.
Take B1: binding was put at a Kd of 62 ± 26 nM. The same measure for B2: 20 ± 1.1 nM; for B3: 28 ± 5 nM. Molecule B4 showed a Kd of 14.5 ± 1.5 nM. The same measure for B5: 10.7 ± 1 nM; for B6: 98 ± 20 nM. B7 had a Kd of roughly 100 nM. The same measure for B8: 17.1 ± 0.9 nM; for B9: 48 ± 4 nM. The molecule B10 displayed an equilibrium dissociation constant (Kd) of 29 ± 7 nM. This Kd is about 1.7-fold lower than that of the molecule before. In the case of B11, the equilibrium dissociation constant (Kd) was found to be 5.2 ± 0.34 nM. B12: the dissociation constant (Kd) was 50 ± 12 nM. In the case of B13, the Kd came out at 9.4 ± 0.5 nM. With B14, the affinity, expressed as Kd, was 51 ± 6 nM. B15 had an equilibrium dissociation constant (Kd) of 8.6 ± 0.7 nM. With B16, the Kd came out at 44 ± 16 nM.

Molecule B17 came in with a Kd of roughly 50 nM. The molecule B18 showed a Kd of 37 ± 4 nM. Then B19, with 12.1 ± 1.1 nM; and B20, with 54 ± 23 nM. For B21, binding was put at a Kd of 12.2 ± 1 nM.

For the molecule B22, binding was characterised by a dissociation constant (Kd) of 27.2 ± 1.4 nM. This Kd is about 2.2-fold higher than that of the molecule before. B23 displayed a Kd of 33 ± 4 nM. The Kd values of the last two molecules are within 1.5-fold of each other.

Take B24: the dissociation constant (Kd) was 15.1 ± 1.5 nM. Take B25: the affinity, expressed as Kd, was 50 ± 11 nM.

Molecule B26 came in with a Kd of 59 ± 9 nM. Molecule B27 gave a Kd of roughly 60 nM.
